One block for each molecule: values may come before it.
Key:
[1] = biological target: C81R mutant PCNA protein from S. cerevisiae (S. cerevisiae) (UniProt P15873); experiment: crystal structure
native gel or EMSA = biological target: the molecule itself; experiment: native gel or EMSA
[2] = biological target: MutSα (Msh2-Msh6) from S. cerevisiae (S. cerevisiae, UniProt P25847 1-964; Q03834 1-1242); experiment: ELISA
crystal structure = biological target: the molecule itself; experiment: crystal structure

MutSα (Msh2-Msh6) from S. cerevisiae, sequence (P25847 whole entry, chain 1 of 2): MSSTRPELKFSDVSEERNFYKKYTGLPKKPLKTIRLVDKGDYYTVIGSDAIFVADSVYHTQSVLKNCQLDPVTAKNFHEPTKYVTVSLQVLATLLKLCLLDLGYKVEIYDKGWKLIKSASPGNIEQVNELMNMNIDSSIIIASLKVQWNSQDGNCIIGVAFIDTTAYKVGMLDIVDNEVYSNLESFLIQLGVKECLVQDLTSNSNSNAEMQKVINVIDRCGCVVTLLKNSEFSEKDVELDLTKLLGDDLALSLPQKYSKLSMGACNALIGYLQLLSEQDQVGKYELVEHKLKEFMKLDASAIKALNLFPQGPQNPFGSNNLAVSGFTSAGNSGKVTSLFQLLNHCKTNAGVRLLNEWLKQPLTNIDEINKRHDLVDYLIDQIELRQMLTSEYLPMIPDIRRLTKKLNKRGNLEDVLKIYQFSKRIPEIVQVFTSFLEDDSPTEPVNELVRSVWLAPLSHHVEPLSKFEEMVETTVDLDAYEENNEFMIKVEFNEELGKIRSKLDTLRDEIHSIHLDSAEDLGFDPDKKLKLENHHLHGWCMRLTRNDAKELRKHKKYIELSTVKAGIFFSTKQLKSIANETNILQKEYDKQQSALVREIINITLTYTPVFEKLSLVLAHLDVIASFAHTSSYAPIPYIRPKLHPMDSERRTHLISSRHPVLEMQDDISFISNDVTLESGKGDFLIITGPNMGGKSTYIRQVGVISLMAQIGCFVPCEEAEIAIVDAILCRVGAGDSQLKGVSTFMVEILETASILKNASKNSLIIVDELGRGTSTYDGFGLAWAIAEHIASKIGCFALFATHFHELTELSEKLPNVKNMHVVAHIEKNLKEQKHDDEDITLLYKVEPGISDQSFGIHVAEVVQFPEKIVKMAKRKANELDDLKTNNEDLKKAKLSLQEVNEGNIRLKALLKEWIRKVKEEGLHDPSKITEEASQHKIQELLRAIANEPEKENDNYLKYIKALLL
MutSα (Msh2-Msh6) from S. cerevisiae, sequence (Q03834 whole entry, chain 2 of 2): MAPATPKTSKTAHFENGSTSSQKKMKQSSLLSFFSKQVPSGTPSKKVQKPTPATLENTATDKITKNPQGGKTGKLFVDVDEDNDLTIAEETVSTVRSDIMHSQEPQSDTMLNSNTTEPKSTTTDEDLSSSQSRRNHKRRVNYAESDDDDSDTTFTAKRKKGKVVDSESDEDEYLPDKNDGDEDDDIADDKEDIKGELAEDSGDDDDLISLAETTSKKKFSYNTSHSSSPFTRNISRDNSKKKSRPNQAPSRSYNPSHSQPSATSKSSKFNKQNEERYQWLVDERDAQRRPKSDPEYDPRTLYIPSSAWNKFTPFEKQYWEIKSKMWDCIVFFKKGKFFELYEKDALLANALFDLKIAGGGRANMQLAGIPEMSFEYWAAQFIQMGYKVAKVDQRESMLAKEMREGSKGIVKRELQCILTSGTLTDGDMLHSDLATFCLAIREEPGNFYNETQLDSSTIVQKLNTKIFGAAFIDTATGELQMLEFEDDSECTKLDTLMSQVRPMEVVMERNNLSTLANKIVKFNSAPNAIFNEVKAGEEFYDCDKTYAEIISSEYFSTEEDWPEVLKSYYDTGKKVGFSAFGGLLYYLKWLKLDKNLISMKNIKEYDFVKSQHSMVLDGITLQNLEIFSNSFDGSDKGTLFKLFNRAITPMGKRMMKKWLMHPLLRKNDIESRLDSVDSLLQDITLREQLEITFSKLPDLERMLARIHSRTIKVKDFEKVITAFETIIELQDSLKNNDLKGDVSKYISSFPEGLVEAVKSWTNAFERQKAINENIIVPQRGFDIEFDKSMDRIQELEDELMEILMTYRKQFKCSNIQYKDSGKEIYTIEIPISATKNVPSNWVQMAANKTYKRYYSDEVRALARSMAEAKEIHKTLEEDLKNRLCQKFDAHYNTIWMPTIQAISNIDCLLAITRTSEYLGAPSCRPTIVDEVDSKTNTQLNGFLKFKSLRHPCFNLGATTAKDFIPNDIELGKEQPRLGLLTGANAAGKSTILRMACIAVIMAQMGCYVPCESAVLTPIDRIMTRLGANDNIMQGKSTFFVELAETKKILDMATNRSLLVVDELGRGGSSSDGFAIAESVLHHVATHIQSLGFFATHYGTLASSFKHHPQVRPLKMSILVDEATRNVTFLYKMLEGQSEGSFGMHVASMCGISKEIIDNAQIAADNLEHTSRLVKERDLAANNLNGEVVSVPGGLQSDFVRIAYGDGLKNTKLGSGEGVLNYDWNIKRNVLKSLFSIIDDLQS

stoichiometry N [1]: 3
Molecule: C81R mutant PCNA protein from S. cerevisiae (from UniProt P15873 1-258) (natural protein)

B1: wild-type PCNA protein (proliferating cell nuclear antigen) from S. cerevisiae (natural protein)
chain: MLEAKFEEASLFKRIIDGFKDCVQLVNFQCKEDGIIAQAVDDSRVLLVSLEIGVEAFQEYRCDHPVTLGMDLTSLSKILRCGNNTDTLTLIADNTPDSIILLFEDTKKDRIAEYSLKLMDIDADFLKIEELQYDSTLSLPSSEFSKIVRDLSQLSDSINIMITKETIKFVADGDIGSGSVIIKPFVDMEHPETSIKLEMDQPVDLTFGAKYLLDIIKGSSLSDRVGIRLSSEAPALFQFDLKSGFLQFFLAPKFNDEE
stoichiometry N (native gel or EMSA): 3

binding result [2]: binds
B2: C81R mutant PCNA protein from S. cerevisiae (natural protein)
chain: MLEAKFEEASLFKRIIDGFKDCVQLVNFQCKEDGIIAQAVDDSRVLLVSLEIGVEAFQEYRCDHPVTLGMDLTSLSKILRRGNNTDTLTLIADNTPDSIILLFEDTKKDRIAEYSLKLMDIDADFLKIEELQYDSTLSLPSSEFSKIVRDLSQLSDSINIMITKETIKFVADGDIGSGSVIIKPFVDMEHPETSIKLEMDQPVDLTFGAKYLLDIIKGSSLSDRVGIRLSSEAPALFQFDLKSGFLQFFLAPKFNDEE

binding result [2]: binds
B3: C22Y mutant PCNA protein from S. cerevisiae (natural protein)
chain: MLEAKFEEASLFKRIIDGFKDYVQLVNFQCKEDGIIAQAVDDSRVLLVSLEIGVEAFQEYRCDHPVTLGMDLTSLSKILRCGNNTDTLTLIADNTPDSIILLFEDTKKDRIAEYSLKLMDIDADFLKIEELQYDSTLSLPSSEFSKIVRDLSQLSDSINIMITKETIKFVADGDIGSGSVIIKPFVDMEHPETSIKLEMDQPVDLTFGAKYLLDIIKGSSLSDRVGIRLSSEAPALFQFDLKSGFLQFFLAPKFNDEE
stoichiometry N (crystal structure): 3
